Experimental data published in article PMC9482650, “Quantitative fragmentomics allow affinity mapping of interactomes” (Nature Communications, 2022).

T1: SNTG2, Q9NY99
T1 sequence (Q9NY99 68-166, limits assumed, looked up): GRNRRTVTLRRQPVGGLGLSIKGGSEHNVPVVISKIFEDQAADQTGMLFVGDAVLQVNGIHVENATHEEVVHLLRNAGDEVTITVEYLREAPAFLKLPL

T2: PARD3B_1, Q8TEW8
T2 sequence (Q8TEW8 196-299, limits assumed, looked up): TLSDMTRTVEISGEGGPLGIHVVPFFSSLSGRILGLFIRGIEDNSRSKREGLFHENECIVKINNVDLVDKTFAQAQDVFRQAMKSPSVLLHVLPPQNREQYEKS

T3: MPP6, Q9NZW5
T3 sequence (Q9NZW5 125-219, limits assumed, looked up): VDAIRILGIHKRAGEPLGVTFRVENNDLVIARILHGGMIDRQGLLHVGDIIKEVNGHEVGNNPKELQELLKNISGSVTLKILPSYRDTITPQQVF

T4: SNTG1, Q9NSN8
T4 sequence (Q9NSN8 52-150, limits assumed, looked up): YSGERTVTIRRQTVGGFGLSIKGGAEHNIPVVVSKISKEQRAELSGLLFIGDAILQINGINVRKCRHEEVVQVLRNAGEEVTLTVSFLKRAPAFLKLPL

T5: APBA1_2, Q02410
T5 sequence (Q02410 742-832, limits assumed, looked up): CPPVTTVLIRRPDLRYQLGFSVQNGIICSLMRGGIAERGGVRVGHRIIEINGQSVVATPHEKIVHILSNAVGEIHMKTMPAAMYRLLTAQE

T6: NHERF3_3, Q5T2W1
T6 sequence (Q5T2W1 238-333, limits assumed, looked up): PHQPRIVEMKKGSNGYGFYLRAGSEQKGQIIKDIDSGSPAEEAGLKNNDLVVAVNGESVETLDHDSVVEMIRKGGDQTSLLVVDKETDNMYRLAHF

T7: LRRC7, Q96NW7
T7 sequence (Q96NW7 1440-1537, limits assumed, looked up): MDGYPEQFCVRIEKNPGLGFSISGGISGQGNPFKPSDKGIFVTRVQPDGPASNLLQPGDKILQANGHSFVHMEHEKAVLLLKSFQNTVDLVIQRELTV

T8: CARD11, Q9BXL7
T8 sequence (Q9BXL7 662-765, limits assumed, looked up): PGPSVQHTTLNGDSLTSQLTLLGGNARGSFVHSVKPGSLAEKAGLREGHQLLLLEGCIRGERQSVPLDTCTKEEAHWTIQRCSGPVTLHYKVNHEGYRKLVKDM

T9: NHERF3_1, Q5T2W1
T9 sequence (Q5T2W1 4-100, limits assumed, looked up): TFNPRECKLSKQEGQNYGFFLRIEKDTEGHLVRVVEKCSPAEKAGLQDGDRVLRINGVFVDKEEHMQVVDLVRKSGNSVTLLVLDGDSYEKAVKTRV


target: LDB3, O75112; test: holdup assay; set-up: key: below the threshold = too weak to quantify, mostly under pKd 3.1 to 4; settings: plain residues with an end cap or a label only (N-terminal biotin on a linker: ado-ado)
Sequence (O75112 1-94): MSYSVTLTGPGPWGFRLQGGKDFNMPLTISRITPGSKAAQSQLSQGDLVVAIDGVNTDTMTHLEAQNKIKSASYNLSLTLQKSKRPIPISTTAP

| pKd | Binder |
| --- | --- |
| below the threshold | EAVTVESTSL [SLC22A11, Q9NSA0] |

target: NHERF4_4, Q86UT5; test: holdup assay; set-up: key: below the threshold = too weak to quantify, mostly under pKd 3.1 to 4; settings: plain residues with an end cap or a label only (N-terminal biotin on a linker: ado-ado)
Sequence (Q86UT5 464-550): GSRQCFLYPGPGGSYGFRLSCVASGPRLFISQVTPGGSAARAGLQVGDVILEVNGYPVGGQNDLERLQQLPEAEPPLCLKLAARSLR

| pKd | Binder |
| --- | --- |
| below the threshold | EAVTVESTSL [SLC22A11, Q9NSA0] |

target: IL16_4, Q14005; test: holdup assay; set-up: key: below the threshold = too weak to quantify, mostly under pKd 3.1 to 4; settings: plain residues with an end cap or a label only (N-terminal biotin on a linker: ado-ado)
Sequence (Q14005 1229-1329): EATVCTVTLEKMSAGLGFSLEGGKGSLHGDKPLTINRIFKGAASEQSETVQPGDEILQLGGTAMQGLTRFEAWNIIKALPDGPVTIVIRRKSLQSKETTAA

| pKd | Binder |
| --- | --- |
| below the threshold | EAVTVESTSL [SLC22A11, Q9NSA0] |

target: T1, SNTG2, Q9NY99; test: holdup assay; set-up: key: below the threshold = too weak to quantify, mostly under pKd 3.1 to 4; settings: plain residues with an end cap or a label only (N-terminal biotin on a linker: ado-ado)

| pKd | Binder |
| --- | --- |
| 3.64 | EAVTVESTSL [SLC22A11, Q9NSA0] |

target: T2, PARD3B_1, Q8TEW8; test: holdup assay; set-up: key: below the threshold = too weak to quantify, mostly under pKd 3.1 to 4; settings: plain residues with an end cap or a label only (N-terminal biotin on a linker: ado-ado)

| pKd | Binder |
| --- | --- |
| 4.43 | EAVTVESTSL [SLC22A11, Q9NSA0] |

target: GRASP, Q7Z6J2; test: holdup assay; set-up: key: below the threshold = too weak to quantify, mostly under pKd 3.1 to 4; settings: plain residues with an end cap or a label only (N-terminal biotin on a linker: ado-ado)
Sequence (Q7Z6J2 96-193): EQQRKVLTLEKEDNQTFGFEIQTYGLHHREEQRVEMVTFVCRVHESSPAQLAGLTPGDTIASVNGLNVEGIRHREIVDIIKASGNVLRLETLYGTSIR

| pKd | Binder |
| --- | --- |
| 5.36 | EAVTVESTSL [SLC22A11, Q9NSA0] |

target: DLG1_3, Q12959; test: holdup assay; set-up: key: below the threshold = too weak to quantify, mostly under pKd 3.1 to 4; settings: plain residues with an end cap or a label only (N-terminal biotin on a linker: ado-ado)
Sequence (Q12959 457-571): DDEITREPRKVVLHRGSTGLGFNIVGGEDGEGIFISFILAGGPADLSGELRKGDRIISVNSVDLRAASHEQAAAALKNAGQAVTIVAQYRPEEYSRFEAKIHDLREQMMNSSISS

| pKd | Binder |
| --- | --- |
| below the threshold | EAVTVESTSL [SLC22A11, Q9NSA0] |

target: T3, MPP6, Q9NZW5; test: holdup assay; set-up: key: below the threshold = too weak to quantify, mostly under pKd 3.1 to 4; settings: plain residues with an end cap or a label only (N-terminal biotin on a linker: ado-ado)

| pKd | Binder |
| --- | --- |
| 3.95 | EAVTVESTSL [SLC22A11, Q9NSA0] |

target: LNX1_1, Q8TBB1; test: holdup assay; set-up: key: below the threshold = too weak to quantify, mostly under pKd 3.1 to 4; settings: plain residues with an end cap or a label only (N-terminal biotin on a linker: ado-ado)
Sequence (Q8TBB1 261-371): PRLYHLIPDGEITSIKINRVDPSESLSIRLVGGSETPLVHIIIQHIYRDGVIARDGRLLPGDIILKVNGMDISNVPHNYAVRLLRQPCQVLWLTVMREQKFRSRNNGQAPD

| pKd | Binder |
| --- | --- |
| 3.5 | EAVTVESTSL [SLC22A11, Q9NSA0] |

target: T4, SNTG1, Q9NSN8; test: holdup assay; set-up: key: below the threshold = too weak to quantify, mostly under pKd 3.1 to 4; settings: plain residues with an end cap or a label only (N-terminal biotin on a linker: ado-ado)

| pKd | Binder |
| --- | --- |
| 3.5 | EAVTVESTSL [SLC22A11, Q9NSA0] |

target: T5, APBA1_2, Q02410; test: holdup assay; set-up: key: below the threshold = too weak to quantify, mostly under pKd 3.1 to 4; settings: plain residues with an end cap or a label only (N-terminal biotin on a linker: ado-ado)

| pKd | Binder |
| --- | --- |
| 3.86 | EAVTVESTSL [SLC22A11, Q9NSA0] |

target: PICK1, Q9NRD5; test: holdup assay; set-up: key: below the threshold = too weak to quantify, mostly under pKd 3.1 to 4; settings: plain residues with an end cap or a label only (N-terminal biotin on a linker: ado-ado)
Sequence (Q9NRD5 17-115): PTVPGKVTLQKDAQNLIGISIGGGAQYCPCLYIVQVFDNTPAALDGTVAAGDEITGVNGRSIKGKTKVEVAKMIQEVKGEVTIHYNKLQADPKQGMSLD

| pKd | Binder |
| --- | --- |
| below the threshold | EAVTVESTSL [SLC22A11, Q9NSA0] |

target: T6, NHERF3_3, Q5T2W1; test: holdup assay; set-up: key: below the threshold = too weak to quantify, mostly under pKd 3.1 to 4; settings: plain residues with an end cap or a label only (N-terminal biotin on a linker: ado-ado)

| pKd | Binder |
| --- | --- |
| below the threshold | EAVTVESTSL [SLC22A11, Q9NSA0] |

target: MAGI2_3, Q86UL8; test: holdup assay; set-up: key: below the threshold = too weak to quantify, mostly under pKd 3.1 to 4; settings: plain residues with an end cap or a label only (N-terminal biotin on a linker: ado-ado)
Sequence (Q86UL8 600-682): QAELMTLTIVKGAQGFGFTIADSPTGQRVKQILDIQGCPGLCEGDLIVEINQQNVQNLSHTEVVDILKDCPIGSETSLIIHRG

| pKd | Binder |
| --- | --- |
| below the threshold | EAVTVESTSL [SLC22A11, Q9NSA0] |

target: Inadl_3, Q8NI35; test: holdup assay; set-up: key: below the threshold = too weak to quantify, mostly under pKd 3.1 to 4; settings: plain residues with an end cap or a label only (N-terminal biotin on a linker: ado-ado)
Sequence (Q8NI35 359-469): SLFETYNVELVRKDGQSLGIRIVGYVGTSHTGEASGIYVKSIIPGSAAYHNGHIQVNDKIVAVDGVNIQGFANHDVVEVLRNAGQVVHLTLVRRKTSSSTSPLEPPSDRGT

| pKd | Binder |
| --- | --- |
| below the threshold | EAVTVESTSL [SLC22A11, Q9NSA0] |

target: T7, LRRC7, Q96NW7; test: holdup assay; set-up: key: below the threshold = too weak to quantify, mostly under pKd 3.1 to 4; settings: plain residues with an end cap or a label only (N-terminal biotin on a linker: ado-ado)

| pKd | Binder |
| --- | --- |
| below the threshold | EAVTVESTSL [SLC22A11, Q9NSA0] |

target: T8, CARD11, Q9BXL7; test: holdup assay; set-up: key: below the threshold = too weak to quantify, mostly under pKd 3.1 to 4; settings: plain residues with an end cap or a label only (N-terminal biotin on a linker: ado-ado)

| pKd | Binder |
| --- | --- |
| below the threshold | EAVTVESTSL [SLC22A11, Q9NSA0] |

target: LIMK2, P53671; test: holdup assay; set-up: key: below the threshold = too weak to quantify, mostly under pKd 3.1 to 4; settings: plain residues with an end cap or a label only (N-terminal biotin on a linker: ado-ado)
Sequence (P53671 143-248): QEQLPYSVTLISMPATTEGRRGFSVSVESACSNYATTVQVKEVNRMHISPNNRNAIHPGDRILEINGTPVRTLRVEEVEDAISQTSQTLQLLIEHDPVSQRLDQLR

| pKd | Binder |
| --- | --- |
| below the threshold | EAVTVESTSL [SLC22A11, Q9NSA0] |

target: IL16_1, Q14005; test: holdup assay; set-up: key: below the threshold = too weak to quantify, mostly under pKd 3.1 to 4; settings: plain residues with an end cap or a label only (N-terminal biotin on a linker: ado-ado)
Sequence (Q14005 210-306): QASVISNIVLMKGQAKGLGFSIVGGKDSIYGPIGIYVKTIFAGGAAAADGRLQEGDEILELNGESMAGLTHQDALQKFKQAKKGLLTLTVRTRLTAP

| pKd | Binder |
| --- | --- |
| below the threshold | EAVTVESTSL [SLC22A11, Q9NSA0] |

target: PTPN3, P26045; test: holdup assay; set-up: key: below the threshold = too weak to quantify, mostly under pKd 3.1 to 4; settings: plain residues with an end cap or a label only (N-terminal biotin on a linker: ado-ado)
Sequence (P26045 505-587): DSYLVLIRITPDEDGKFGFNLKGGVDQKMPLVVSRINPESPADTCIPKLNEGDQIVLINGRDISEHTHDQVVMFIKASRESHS

| pKd | Binder |
| --- | --- |
| 4.62 | EAVTVESTSL [SLC22A11, Q9NSA0] |

target: TJP1_3, Q07157; test: holdup assay; set-up: key: below the threshold = too weak to quantify, mostly under pKd 3.1 to 4; settings: plain residues with an end cap or a label only (N-terminal biotin on a linker: ado-ado)
Sequence (Q07157 416-512): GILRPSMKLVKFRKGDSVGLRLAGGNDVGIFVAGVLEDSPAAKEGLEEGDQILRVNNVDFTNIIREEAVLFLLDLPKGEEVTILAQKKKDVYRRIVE

| pKd | Binder |
| --- | --- |
| below the threshold | EAVTVESTSL [SLC22A11, Q9NSA0] |

target: DLG2_2, Q15700; test: holdup assay; set-up: key: below the threshold = too weak to quantify, mostly under pKd 3.1 to 4; settings: plain residues with an end cap or a label only (N-terminal biotin on a linker: ado-ado)
Sequence (Q15700 189-283): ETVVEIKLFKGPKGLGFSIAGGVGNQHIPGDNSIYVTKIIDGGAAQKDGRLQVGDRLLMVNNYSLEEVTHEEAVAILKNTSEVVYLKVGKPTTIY

| pKd | Binder |
| --- | --- |
| below the threshold | EAVTVESTSL [SLC22A11, Q9NSA0] |

target: SCRIB_3, Q14160; test: holdup assay; set-up: key: below the threshold = too weak to quantify, mostly under pKd 3.1 to 4; settings: plain residues with an end cap or a label only (N-terminal biotin on a linker: ado-ado)
Sequence (Q14160 999-1103): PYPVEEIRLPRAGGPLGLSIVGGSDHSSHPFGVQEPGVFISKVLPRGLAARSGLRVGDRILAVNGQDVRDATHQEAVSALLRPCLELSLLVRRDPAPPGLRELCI

| pKd | Binder |
| --- | --- |
| 4.75 | EAVTVESTSL [SLC22A11, Q9NSA0] |

target: AHNAK1, Q09666; test: holdup assay; set-up: key: below the threshold = too weak to quantify, mostly under pKd 3.1 to 4; settings: plain residues with an end cap or a label only (N-terminal biotin on a linker: ado-ado)
Sequence (Q09666 4-100): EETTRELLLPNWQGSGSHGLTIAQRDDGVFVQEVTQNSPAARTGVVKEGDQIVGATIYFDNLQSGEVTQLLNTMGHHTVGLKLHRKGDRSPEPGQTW

| pKd | Binder |
| --- | --- |
| below the threshold | EAVTVESTSL [SLC22A11, Q9NSA0] |

target: T9, NHERF3_1, Q5T2W1; test: holdup assay; set-up: key: below the threshold = too weak to quantify, mostly under pKd 3.1 to 4; settings: plain residues with an end cap or a label only (N-terminal biotin on a linker: ado-ado)

| pKd | Binder |
| --- | --- |
| 6.1 | EAVTVESTSL [SLC22A11, Q9NSA0] |

target: GRIP2_6, Q9C0E4; test: holdup assay; set-up: key: below the threshold = too weak to quantify, mostly under pKd 3.1 to 4; settings: plain residues with an end cap or a label only (N-terminal biotin on a linker: ado-ado)
Sequence (Q9C0E4 648-740): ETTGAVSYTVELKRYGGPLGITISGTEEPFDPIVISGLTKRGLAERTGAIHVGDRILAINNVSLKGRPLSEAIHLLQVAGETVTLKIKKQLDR

| pKd | Binder |
| --- | --- |
| below the threshold | EAVTVESTSL [SLC22A11, Q9NSA0] |

target: SCRIB_1, Q14160; test: holdup assay; set-up: key: below the threshold = too weak to quantify, mostly under pKd 3.1 to 4; settings: plain residues with an end cap or a label only (N-terminal biotin on a linker: ado-ado)
Sequence (Q14160 718-814): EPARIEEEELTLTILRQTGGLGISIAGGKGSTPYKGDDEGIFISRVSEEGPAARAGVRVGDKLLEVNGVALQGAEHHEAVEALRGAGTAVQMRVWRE

| pKd | Binder |
| --- | --- |
| 4.56 | EAVTVESTSL [SLC22A11, Q9NSA0] |

target: DLG5_1, Q8TDM6; test: holdup assay; set-up: key: below the threshold = too weak to quantify, mostly under pKd 3.1 to 4; settings: plain residues with an end cap or a label only (N-terminal biotin on a linker: ado-ado)
Sequence (Q8TDM6 617-713): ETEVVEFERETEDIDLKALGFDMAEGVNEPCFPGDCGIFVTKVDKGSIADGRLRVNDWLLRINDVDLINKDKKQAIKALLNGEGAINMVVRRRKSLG

| pKd | Binder |
| --- | --- |
| below the threshold | EAVTVESTSL [SLC22A11, Q9NSA0] |
